Data as given in US20250171549A1 (Amgen, published 2025).
Where no end group is shown, it is not given here.

Columns and labels:
human CCR8 [1] = molecular target: T1, human CCR8 (human, UniProt P51685 1-355); test: cell-based or functional assay
[2] = molecular target: T2, cynomolgus monkey CCR8 (T4R; comprising arginine at position four) (cynomolgus monkey, UniProt O97665 1-356 (rhesus entry)); test: flow cytometry titration on CHO cells; N.D. means not detectable
T2 construct: Expressed on CHO cells; also called cy CCR8 (T4R); Cynomolgus monkey Mauritian origin T4R CCR8
T2 chain: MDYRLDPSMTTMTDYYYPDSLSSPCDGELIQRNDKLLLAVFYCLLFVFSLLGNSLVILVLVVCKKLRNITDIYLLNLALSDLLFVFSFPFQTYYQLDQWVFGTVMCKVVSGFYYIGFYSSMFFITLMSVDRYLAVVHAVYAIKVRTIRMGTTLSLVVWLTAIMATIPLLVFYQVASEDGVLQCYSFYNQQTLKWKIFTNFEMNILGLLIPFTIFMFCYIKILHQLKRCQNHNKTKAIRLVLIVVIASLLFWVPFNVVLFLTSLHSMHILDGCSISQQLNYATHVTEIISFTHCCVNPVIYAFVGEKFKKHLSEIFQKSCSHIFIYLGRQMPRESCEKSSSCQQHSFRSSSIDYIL
Procedure: (§1) Bound anti-CCR8 antibody molecules were detected with Alexa Fluor 647 conjugated Goat anti-Human IgG (H+L). Cells were subsequently stained with Zombie Violet viability dye, fixed with 4% PFA on ice, and detected by fluorescence cytometry. Equilibrium dissociation constant (Kd) values were calculated by non-linear regression with the one site specific binding evaluation tool of the GraphPad Prism software. “N.D.” means not detectable.

[3] = molecular target: T3, cynomolgus monkey CCR8 (comprising threonine at position four) (cynomolgus monkey, UniProt O97665 1-356 (rhesus entry)); test: flow cytometry titration on CHO cells
T3 construct: also called Cyno CCR8; cynomolgus CCR8
Procedure: as §1

human CCR8 [4] = molecular target: T1, human CCR8; test: cell-based or functional assay; remark: listed apart in the source
[5] = molecular target: T2, cynomolgus monkey CCR8 (T4R; comprising …); test: flow cytometry titration on CHO cells
Procedure: as §1

huCCR8 (1-12)-Nb [6] = molecular target: T4, huCCR8 (1-12)-Nb (human, not fully specified (C-terminus); also: fused to nanobody, biotinylated in Fab assay); test: BLI (Octet), mAb on anti-huIgG Fc sensor, peptide-Nb in solution
T4 construct: Expressed in human cells; also called CCR8 peptide-Nb fusion; not shown: nanobody (Nb) fusion partner, any linker or tag to it, and the biotin site
T4 peptide: MDYTLDLSVTTV
Procedure: (§2) Binding affinities (KD equilibrium dissociation constant) and rate constants (kₐ association rate constant, kd dissociation rate constant) of an Antibody 1 Fab and CCR8-binding monoclonal antibodies (mAbs) of the present invention to a CCR8 1-12 epitope (SEQ ID NO: 82)-nanobody (Nb) fusion protein were measured using an OCTET® Biolayer Interferometry system (Sartorius AG, Göttingen, Germany). The CCR8-nanobody fusion proteins were expressed in human cells. For Fab binding, biotinylated CCR8 peptide-Nb fusions were captured on streptavidin SAX biosensors to loading levels between 2 and 4 nm and then incubated with a dilution series of the soluble Fab (top 100 nM, 6-point, 1:3 serial dilution) for 300 seconds followed by 500 seconds in buffer for dissociation. For mAb binding, mAbs were captured on an anti-huIgG Fc capture biosensor to 1 to 2 nm loading level and then incubated with a dilution series of non-biotinylated CCR8 peptide-Nb fusions (top 100 nM, 6-point, 1:3 serial dilution) for 300 seconds followed by 500 seconds in buffer for dissociation.
(§3) The OCTET® system acquires data over time (seconds) using a mechanism called Biolayer Interferometry; as proteins bind to biosensor tips, a sensitive binding signal in nm is measured by the instrument. All fiber optic tips were used once and then discarded, i.e., no regeneration. OCTET® buffer baselines, dissociation steps, and protein dilutions were made with OCTET® buffer (10 mM TRIS pH 7.5, 150 mM NaCl, 1 mM CaCl₂), 0.13% (v/v) Triton X-100 and 0.10 mg/mL BSA).
(§4) Raw data was processed with GeneData Screener v18 SPR package which uses the same data processing as the OCTET® instrument Data Analysis software (subtract average of two reference wells per column; Align Y-axis to baseline; Interstep correction align to dissociation; and Savitzky-Golay filtering). Each Fab or mAb interaction was grouped into its own sensorgram and globally fit with a 1:1 binding model to determine the association rate constant (kₐ; units M⁻¹ sec⁻¹) and the dissociation rate constant (kd; units sec⁻¹).

huCCR8 (1-25)[C25S]-Nb [7] = molecular target: T5, huCCR8 (1-25)[C25S]-Nb (human, not fully specified; biotinylated for the Fab assay, non-biotinylated for the mAb assay ; biotinylated when captured on streptavidin sensors (Fab assay); non-biotinylated in the mAb assay); test: as above
T5 construct: Expressed in human cells; also called CCR8 peptide-Nb fusion; not shown: nanobody (Nb) fusion partner, any linker or tag to it, and the biotin site
T5 peptide: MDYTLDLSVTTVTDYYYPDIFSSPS

human CCR8 [8] = molecular target: T1, human CCR8; test: cell-based or functional assay; remark: listed apart in the source
human CCR8 [9] = molecular target: T1, human CCR8; test: cell-based or functional assay; remark: listed apart in the source
huCCR8 (1-25)[C25S]-Nb [10] = molecular target: T5, huCCR8 (1-25)[C25S]-Nb; test: BLI (Octet), biotinylated peptide-Nb on streptavidin sensor, Fab in solution
huCCR8 (1-12)-Nb [11] = molecular target: T4, huCCR8 (1-12)-Nb; test: as above
Procedure: as §2, §3, §4

T1 sequence (P51685 whole entry): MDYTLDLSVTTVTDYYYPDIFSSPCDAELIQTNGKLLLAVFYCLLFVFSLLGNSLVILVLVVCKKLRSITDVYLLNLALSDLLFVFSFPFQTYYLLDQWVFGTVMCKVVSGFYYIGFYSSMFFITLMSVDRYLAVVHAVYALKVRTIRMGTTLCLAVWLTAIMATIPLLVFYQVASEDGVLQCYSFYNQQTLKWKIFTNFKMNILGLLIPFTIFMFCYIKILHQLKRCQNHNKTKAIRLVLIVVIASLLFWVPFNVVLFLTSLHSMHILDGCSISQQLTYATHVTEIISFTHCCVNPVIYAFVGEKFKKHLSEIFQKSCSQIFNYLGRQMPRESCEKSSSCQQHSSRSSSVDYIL

B1: Antibody 1.1 IgG1 (LC: H45Q_S51P) (antibody, V domains shown)
VH: EVQLVESGGGLVKPGGSLRLSCAASGFTFSNARMGWVRQAPGKGLEWVGRIKSKTEGGTRDYAAPVKGRFTISRDDSKNTLYLQMNSLKTEDTAVYYCTSYSGVWGQGTMVTVSS
VL: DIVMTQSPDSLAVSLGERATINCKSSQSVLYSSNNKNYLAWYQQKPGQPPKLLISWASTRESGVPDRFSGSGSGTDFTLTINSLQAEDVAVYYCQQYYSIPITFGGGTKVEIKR
notes: Afucosylated IgG1
With B1 the “ADCC, Percent Non-Viable cells (EC50 pM), Donor 1” value (human CCR8 [1]) was < 0.256 pM, the “ADCC, Percent Non-Viable cells (EC50 pM), Donor 2” value (human CCR8 [1]) was 8.13 pM and the “ADCC, Percent Non-Viable cells (EC50 pM), Donor 3” value (human CCR8 [1]) was 2.2 pM. The binding result [2] was “no binding (tested: 0.005-100 nM)” and the Kd [3] was 0.172 nM.

B2: Antibody 2.2 IgG1 (LC: F2I_P51S_H53Q_L103V_N148K, HC: K87N_S94N_V98A)(LC: Y25A, HC: A71L_D72K) (antibody, V domains shown)
VH: QVQLVESGGGVVQPGRSLRLSCAASGFTFSNYGMHWVRQAPGKGLEWVAVISYDGSNKFYLKSVKGRFTISRDNSKNTLYLQMNSLRAEDTAVYYCARAGGIGRFDYWGQGTLVTVSS
VL: DIVMTQTPLSLSVTPGQPASISCKASQSLLHSDGKTYLFWYLQKPGQSPQLLIYEVSNRFSGVPDRFSGSGSGTDFTLKISRVEAEDVGVYYCMQTLKLPLTFGGGTKVEIKR
notes: Afucosylated IgG1
For B2, the “Percent Inhibition (IC50 nM) of CCL1-dependent chemotaxis of HUT78 cells” value (human CCR8 [4]) was 0.076 nM, the “ADCC, Percent Non-Viable cells (EC50 pM), Donor 1” value (human CCR8 [1]) was < 0.256 pM and the “ADCC, Percent Non-Viable cells (EC50 pM), Donor 2” value (human CCR8 [1]) was 6.04 pM. For the same binder, the “ADCC, Percent Non-Viable cells (EC50 pM), Donor 3” value (human CCR8 [1]) was 1.8 pM, the Kd [5] was 0.989 nM and the Kd [3] was 0.399 nM.

B3: huCCR8_44379 (VH: D72S, VL: N67A_S68A_M99G_W109F_S111A)_huIgG1z (mAb) (antibody, V domains shown)
VH: QVQLVESGGGVVQPGRSLRLSCAASGFTFSNYGFHWVRQTPGKGLEWVAVISYDGSNRYYASSVKGRFTISRDNSKNTLYLQMNSLRGEDTALYYCARVYYGSGTYYKNRYYYGMDVWGQGTTVTVSS
VL: SYELTQPPSVSVALGQTARITCGGHNIGSKGVHWYQQKPGQAPVLVIYRAANRPSGIPERFSGSNSGNTATLTISGTQAGDEADYYCQAFDAGTVVFGGGTQLTVLG
notes: Engineered from scFv MPK20299-A4; afucosylated IgG1, HC without C-terminal lysine
Work on B3 yielded a Kd (huCCR8 (1-12)-Nb [6]) of 9 nM, a koff (huCCR8 (1-12)-Nb [6]) of 0.0011 s⁻¹ and a kon (huCCR8 (1-12)-Nb [6]) of 122000 M⁻¹ s⁻¹. It also gave a Kd (huCCR8 (1-25)[C25S]-Nb [7]) of 9.8 nM, a koff (huCCR8 (1-25)[C25S]-Nb [7]) of 0.000975 s⁻¹ and a kon (huCCR8 (1-25)[C25S]-Nb [7]) of 99300 M⁻¹ s⁻¹. For the same binder, the “ADCC, Percent Non-Viable cells (EC50 pM), Donor 7” value (human CCR8 [8]) was 0.48 pM.

B4: huCCR8(32360LC:K38R)_huIgG1z(mAb) (antibody, V domains shown)
VH: EVQLVESGGGLVKPGGSLRLSCAASGFTFSNARMGWVRQAPGKGLEWVGRIKSKTEGGTRDYAAPVKGRFTISRDDSKNTLYLQMNSLKTEDTAVYYCTSYSGVWGQGTMVTVSS
VL: not shown
notes: Afucosylated IgG1, HC without C-terminal lysine
For B4, the Kd (huCCR8 (1-12)-Nb [6]) was 60.6 nM, the koff (huCCR8 (1-12)-Nb [6]) was 0.024 s⁻¹ and the kon (huCCR8 (1-12)-Nb [6]) was 397000 M⁻¹ s⁻¹. The “ADCC, Percent Non-Viable cells (EC50 pM), Donor 8” value (human CCR8 [9]) was 3 pM and the “ADCC, Percent Non-Viable cells (EC50 pM), Donor 9” value (human CCR8 [9]) was 2.7 pM.

B5: Fab (HCVR SEQ ID NO: 13; LCVR SEQ ID NO: 14) (Fab, V domains shown)
VH: EVQLVESGGGLVKPGGSLRLSCAASGFTFSNARMGWVRQAPGKGLEWVGRIKSKTEGGTRDYAAPVKGRFTISRDDSKNTLYLQMNSLKTEDTAVYYCTSYSGVWGQGTMVTVSS
VL: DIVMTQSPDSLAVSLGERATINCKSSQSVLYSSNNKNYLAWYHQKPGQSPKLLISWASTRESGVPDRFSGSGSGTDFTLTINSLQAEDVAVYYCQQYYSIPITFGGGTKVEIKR
notes: also called Antibody 1 Fab
B5 was tested, and the Kd (huCCR8 (1-25)[C25S]-Nb [10]) was 17.4 nM, the koff (huCCR8 (1-25)[C25S]-Nb [10]) was 0.0106 s⁻¹ and the kon (huCCR8 (1-25)[C25S]-Nb [10]) was 606000 M⁻¹ s⁻¹. The Kd (huCCR8 (1-12)-Nb [11]) was 22.6 nM, the koff (huCCR8 (1-12)-Nb [11]) was 0.0132 s⁻¹ and the kon (huCCR8 (1-12)-Nb [11]) was 584000 M⁻¹ s⁻¹.
